From patent publication EP4714974A1 (Shanghai Qilu Pharmaceutical Research and Development …, dated 2026)

B1: 18CH-16 (chimeric mouse hybridoma-derived anti-GPRC5D antibody) (antibody, V domains shown)
VH: EVQLQQSGPELVKPGASVKMSCKASGYTFTSYIIHWVKQKPGQGLEWIGYINPYNDGTKYNEKFKGKATLTSDRSSSTAYMEVSSLTSEDSAVYYCARGGIRAFMNYWGQGTSVTVSS
VL: DIVMTQSHKFMSTSVGDRVSITCKASQDVGTAVAWYQQKPGQSPKLLIYWASTRHTGVPDRFTGSGSGTDFTLSISNVQSEDLADYFCQHYISWTFGGGTNLEIK
notes: also called parent antibody
B2: Bispecific antibody 1 (bispecific antibody, human IgG1, kappa, L234A L235A)
heavy 1: not shown
heavy 2: QVQLVQSGAEVKKPGASVKVSCKASGYTFTSYIIHWVRQAPGQGLEWIGYINPYNDGTKYNEKFKGRVTMTSDTSTSTVYMELSSLRSEDTAVYYCARGGIRAFMNYWGQGTLVTVSSASTKGPSVFPLAPSSKSTSGGTAALGCLVKDYFPEPVTVSWNSGALTSGVHTFPAVLQSSGLYSLSSVVTVPSSSLGTQTYICNVNHKPSNTKVDKKVEPKSCDKTHTCPPCPAPEAAGGPSVFLFPPKPKDTLMISRTPEVTCVVVDVSHEDPEVKFNWYVDGVEVHNAKTKPREEQYNSTYRVVSVLTVLHQDWLNGKEYKCKVSNKALPAPIEKTISKAKGQPREPQVCTLPPSRDELTKNQVSLSCAVKGFYPSDIAVEWESNGQPENNYKTTPPVLDSDGSFFLVSKLTVDKSRWQQGNVFSCSVMHEALHNRYTQKSLSLSPGK
light: DIQMTQSPSSLSASVGDRVTITCKASQDVGTAVAWYQQKPGKAPKLLIYWASTRHTGVPSRFSGSGSGTDFTLTISSLQPEDFATYYCQHYISWTFGQGTKVEIKRTVAAPSVFIFPPSDEQLKSGTASVVCLLNNFYPREAKVQWKVDNALQSGNSQESVTEQDSKDSTYSLSSTLTLSKADYEKHKVYACEVTHQGLSSPVTKSFNRGEC
notes: 2+1 format: two GPRC5D Fabs and one CD3 scFv placed between a Fab and the Fc; also called anti-CD3-GPRC5D bispecific antibody 1; anti-GPRC5D/CD3 bispecific antibody
B3: Bispecific antibody 2 (bispecific antibody)
heavy: not shown
light: DIQMTQSPSSLSASVGDRVTITCKASQDVGTAVAWYQQKPGKAPKLLIYWASTRHTGVPSRFSGSGSGTDFTLTISSLQPEDFATYYCQHYISWTFGQGTKVEIKRTVAAPSVFIFPPSDEQLKSGTASVVCLLNNFYPREAKVQWKVDNALQSGNSQESVTEQDSKDSTYSLSSTLTLSKADYEKHKVYACEVTHQGLSSPVTKSFNRGEC
chain: DKTHTCPPCPAPEAAGGPSVFLFPPKPKDTLMISRTPEVTCVVVDVSHEDPEVKFNWYVDGVEVHNAKTKPREEQYNSTYRVVSVLTVLHQDWLNGKEYKCKVSNKALPAPIEKTISKAKGQPREPQVCTLPPSRDELTKNQVSLSCAVKGFYPSDIAVEWESNGQPENNYKTTPPVLDSDGSFFLVSKLTVDKSRWQQGNVFSCSVMHEALHNRYTQKSLSLSPGK
notes: 1+1 format: one GPRC5D Fab, one CD3 scFv between Fab and Fc, Fc-only hole chain; also called anti-CD3-GPRC5D bispecific antibody 2; anti-GPRC5D/CD3 bispecific antibody
B4: 18CH16H2L1 (humanized mouse hybridoma-derived anti-GPRC5D antibody) (antibody, V domains shown)
VH: QVQLVQSGAEVKKPGASVKVSCKASGYTFTSYIIHWVRQAPGQGLEWIGYINPYNDGTKYNEKFKGRVTMTSDTSTSTVYMELSSLRSEDTAVYYCARGGIRAFMNYWGQGTLVTVSS
VL: DIQMTQSPSSLSASVGDRVTITCKASQDVGTAVAWYQQKPGKAPKLLIYWASTRHTGVPSRFSGSGSGTDFTLTISSLQPEDFATYYCQHYISWTFGQGTKVEIK
notes: also called humanized clone 18CH16 antibody

How the values were obtained:
human GPRC5D [1] = biological target: T1, human GPRC5D (human, UniProt Q9NZD1 1-345); assay: flow cytometry on human GPRC5D-CHOK1 cells
T1 construct: whole, on cells; also called hGPRC5D; G-protein coupled receptor family C group 5 member D
T1 sequence (Q9NZD1 whole entry): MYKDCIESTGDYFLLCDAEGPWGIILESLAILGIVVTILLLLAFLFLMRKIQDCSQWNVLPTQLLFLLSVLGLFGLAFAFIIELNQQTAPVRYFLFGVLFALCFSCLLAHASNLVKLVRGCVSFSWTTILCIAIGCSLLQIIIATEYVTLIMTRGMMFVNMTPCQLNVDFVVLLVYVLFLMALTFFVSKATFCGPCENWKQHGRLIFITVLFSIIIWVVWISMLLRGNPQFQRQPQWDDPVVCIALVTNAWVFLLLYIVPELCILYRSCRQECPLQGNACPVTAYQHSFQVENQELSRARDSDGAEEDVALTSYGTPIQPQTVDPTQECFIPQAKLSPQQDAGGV

cynomolgus monkey GPRC5D = biological target: T2, cynomolgus monkey GPRC5D (cynomolgus monkey); assay: flow cytometry on cynomolgus monkey GPRC5D-CHOK1 cells
T2 chain: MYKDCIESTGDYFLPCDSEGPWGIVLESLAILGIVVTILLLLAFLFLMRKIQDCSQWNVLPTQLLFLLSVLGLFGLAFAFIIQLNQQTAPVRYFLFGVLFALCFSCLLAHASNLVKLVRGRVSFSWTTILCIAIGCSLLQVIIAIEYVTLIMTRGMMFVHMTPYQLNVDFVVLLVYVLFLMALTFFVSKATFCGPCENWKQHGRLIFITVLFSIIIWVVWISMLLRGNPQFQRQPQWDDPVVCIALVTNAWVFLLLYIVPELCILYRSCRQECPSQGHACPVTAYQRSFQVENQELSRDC

human GPRC5A = biological target: T3, human GPRC5A (human, UniProt Q8NFJ5 1-357); assay: flow cytometry on human GPRC5A-CHOK1 cells
T3 construct: whole, on cells; also called human GPRC5A-CHOK1 cell line
T3 sequence (Q8NFJ5 whole entry): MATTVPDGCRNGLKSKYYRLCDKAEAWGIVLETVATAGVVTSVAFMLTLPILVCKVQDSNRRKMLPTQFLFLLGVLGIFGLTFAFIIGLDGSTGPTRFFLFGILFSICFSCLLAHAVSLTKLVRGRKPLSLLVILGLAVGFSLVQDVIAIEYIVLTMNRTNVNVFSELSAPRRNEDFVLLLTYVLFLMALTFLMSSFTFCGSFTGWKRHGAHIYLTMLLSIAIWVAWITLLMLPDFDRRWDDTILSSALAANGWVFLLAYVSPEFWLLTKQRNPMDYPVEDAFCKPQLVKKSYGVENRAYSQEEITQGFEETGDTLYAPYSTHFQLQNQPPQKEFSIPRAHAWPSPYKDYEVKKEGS

[2] = biological target: T4, human CD3 on Jurkat cells (human, UniProt P07766 23-207); assay: flow cytometry (FACS) on Jurkat cells expressing hCD3
T4 construct: whole, on cells; CD3 complex on cells; also called hCD3; Jurkat cell strain
T4 sequence (P07766 23-207): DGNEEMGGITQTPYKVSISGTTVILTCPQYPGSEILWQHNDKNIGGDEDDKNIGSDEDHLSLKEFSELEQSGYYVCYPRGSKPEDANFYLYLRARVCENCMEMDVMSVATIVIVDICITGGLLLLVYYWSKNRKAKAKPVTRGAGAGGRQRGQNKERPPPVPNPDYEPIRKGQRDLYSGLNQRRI

human GPRC5D [3] = biological target: T1, human GPRC5D; assay: cell-based or functional assay
human GPRC5D [4] = biological target: T1, human GPRC5D; assay: flow cytometry (FACS) on NCI-H929 cells expressing hGPRC5D
human GPRC5D [5] = biological target: T1, human GPRC5D; assay: flow cytometry (FACS) on RPMI8226 cells expressing hGPRC5D
[6] = biological target: T5, cynomolgus monkey CD3 (purchased from Acro, Cat. No. CDD-C52W4) (cynomolgus monkey, UniProt Q95LI5 22-117); assay: SPR (Biacore 8K), CD3 immobilised on CM5 chip, bispecific antibody as analyte, 1:1 Langmuir fit
T5 construct: Bought reagent
T5 sequence (looked up): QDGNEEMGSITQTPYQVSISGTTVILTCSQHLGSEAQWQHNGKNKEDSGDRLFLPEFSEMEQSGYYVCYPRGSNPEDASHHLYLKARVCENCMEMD

[7] = biological target: T6, human CD3 (purchased from Acro, Cat. No. CDD-H52W1) (human, UniProt P07766 23-126); assay: as above
T6 construct: Bought reagent; also called human CD3 protein
T6 sequence (P07766 23-126): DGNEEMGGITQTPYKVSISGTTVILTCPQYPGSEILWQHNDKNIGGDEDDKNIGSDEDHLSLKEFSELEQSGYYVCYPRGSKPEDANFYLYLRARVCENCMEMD

human GPRC5D [8] = biological target: T1, human GPRC5D; assay: flow cytometry on human GPRC5D-CHOK1 cells; remark: listed apart in the source
human GPRC5D [9] = biological target: T1, human GPRC5D; assay: flow cytometry on NCI-H929 cells

| Binder | EC50 (human GPRC5D [1]) | EC50 (cynomolgus monkey GPRC5D) | binding result (human GPRC5A) | EC50 [2] | TDCC EC50(nM), NCI-H929 cell strain (human GPRC5D [3]) | TDCC EC50(nM), RPMI8226 cell strain (human GPRC5D [3]) | EC50 (human GPRC5D [4]) | EC50 (human GPRC5D [5]) | Kd [6] | koff [6] | kon [6] | Kd [7] | koff [7] | kon [7] | EC50 (human GPRC5D [8]) | EC50 (human GPRC5D [9]) |
| --- | --- | --- | --- | --- | --- | --- | --- | --- | --- | --- | --- | --- | --- | --- | --- | --- |
| B1 | 3.89 nM | 4.39 nM | no binding (tested: 100 nM (initial concentration)) |  |  |  |  |  |  |  |  |  |  |  |  |  |
| B2 |  |  |  | 22.1 nM | 0.001 nM | 0.01 nM | 1.07 nM | 7.48 nM | 16.8 nM | 0.00292 s⁻¹ | 174000 M⁻¹ s⁻¹ | 20 nM | 0.00226 s⁻¹ | 113000 M⁻¹ s⁻¹ |  |  |
| B3 |  |  |  | 12.9 nM | 0.017 nM | 0.08 nM | 5.19 nM | 22.9 nM | 18.9 nM | 0.00279 s⁻¹ | 147000 M⁻¹ s⁻¹ | 18.1 nM | 0.00214 s⁻¹ | 118000 M⁻¹ s⁻¹ |  |  |
| B4 |  |  |  |  |  |  |  |  |  |  |  |  |  |  | 0.51 nM | 0.3 nM |
